{"source": "paper PMC12809912", "about": "“Structural and epitope characterization of anti-DEFA5 monoclonal antibodies clones 1A8 and 4F5 for inflammatory bowel disease subtype diagnostics” (International journal of biological macromolecules, 2025)", "binders": {"B1": {"name": "mouse monoclonal antibody clone 1A8 (anti-DEFA5) (antibody, V domains shown)", "VH": "QVQLQQSGAELVRPGASVKMSCKALGYTFFDYEMHWMKQTPVYGLEWIGAIHPGSGDTAYNQKFKGKATLTADKSSNTAYMELSSLTSEDSAVYYCTREGTVVAPFDYWGQGTTLTVSS", "VL": "DVLMTQTPLSLPVSLGDQASISCRSSQSIVHSNGNTYLEWYLQKPGQSPKLLINKVSNRFSGVPDRFSGSGSGTDFTLKISRVEAEDLGVYYCFQGSYVPYTFGGGTKLEIK", "notes": "the print has a blank between NYKNT and PIMDTDG; Whole IgG, intact mass ~148.73 kDa; also called mAb 1A8; source: mouse hybridoma clone, purified monoclonal antibody"}, "B2": {"name": "mouse monoclonal antibody clone 4F5 (anti-DEFA5) (antibody, V domains shown)", "VH": "QVQLQQSGAELVRPGASVKMSCKALGYTFFDYEMHWMKQTPVYGLEWIGAIHPGSGDTAYNQKFKGKATLTADKSSNTAYMELSSLTSEDSAVYYCTREGTVVAPFDYWGQGTTLTVSS", "VL": "DVLMTQTPLSLPVSLGDQASISCRSSQSIVHSNGNTYLEWYLQKPGQSPKLLINKVSNRFSGVPDRFSGSGSGTDFTLKISRVEAEDLGVYYCFQGSYVPYTFGGGTKLEIK", "notes": "the print has a blank between NYKNT and PIMDTDG; Whole IgG, intact mass ~148.65 kDa; also called mAb 4F5; source: mouse hybridoma clone, purified monoclonal antibody"}}, "conditions_in_all_cases": "both partners purified", "key": {"[1]": {"target": "T1, biotinylated DEFA5 epitope peptide Biotin-RATCYCRTGRCAT (Homo sapiens, cysteine pairing not given here)", "T1 construct": "human DEFA5 residues 62-74; source: synthetic peptide", "T1 chain": "Biotin-RATCYCRTGRCAT", "assay": "SPR; Biacore 8K, Biotin-RATCYCRTGRCAT immobilised on SA chip (~95 RU), antibodies injected 7.81-125 nM, 25 C, HBS-EP+, 30 uL/min, global fit to a 1:1 binding model"}, "[2]": {"target": "T2, peptide variant of … with the N-terminal Ala61 deleted (Homo sapiens, UniProt Q01523)", "T2 construct": "also called N-terminal deletion mutant; source: synthetic peptide (GenScript, >95 % purity)", "T2 chain": "RATCYCRTGRCATR", "assay": "ELISA; indirect peptide ELISA: peptide coated at 5 ug/mL overnight at 4 C, antibody in PBST with 1 % BSA 2 h at 37 C, HRP goat anti-mouse IgG, OD 450 nm"}, "[3]": {"target": "T3, peptide No. 57 of the overlapping library, DEFA5 amino acids 61-75 (ARATCYCRTGRCATR) (Homo sapiens)", "T3 construct": "human DEFA5 amino acids 61-75; source: synthetic peptide (GenScript, >95 % purity)", "T3 chain": "ARATCYCRTGRCATR", "assay": "ELISA; indirect peptide ELISA: peptide coated at 5 ug/mL overnight at 4 C, antibody in PBST with 1 % BSA 2 h at 37 C, HRP goat anti-mouse IgG, OD 450 nm"}}, "note": "Ends that are not written are not given here. * marks the point of attachment. Biotin = O=C1N[C@H]2[C@H](CS[C@H]2CCCCC(=O)*)N1", "data": [{"binder": "B1", "values": [{"measurement": "Kd", "setting": "[1]", "result": 0.0135, "unit": "µM"}, {"measurement": "stoichiometry N", "setting": "[1]", "result": 1}, {"measurement": "binding result", "setting": "[2]", "result": "binds"}, {"measurement": "binding result", "setting": "[3]", "result": "binds"}]}, {"binder": "B2", "values": [{"measurement": "Kd", "setting": "[1]", "result": 0.015, "unit": "µM"}, {"measurement": "stoichiometry N", "setting": "[1]", "result": 1}, {"measurement": "binding result", "setting": "[2]", "result": "binds"}, {"measurement": "binding result", "setting": "[3]", "result": "binds"}]}]}
